Results as given in the DeepSol protein solubility set.

Assay: soluble on expression in E. coli; label from the status in PepcDB or PDB records

Sequence | soluble on expression in E. coli
MSLDSISLHKIFYKVLKNNTLPECQVIAAEGLCKLYLADIFNDDDLFETLILSYFSPSNSSNEGLIQAFAFCIPVYSYSHVLHQQRITKIASDVLLRLYMLWVDFQANEETDENIETMLKPNVILQQLISWTDPRKLIGENEKAINDNYQLNFLLDIFQQFPKFDKKNIKKMILTNINAFYVSSDNDMHKLREIKEHLEDIIENEIIDTMTLNSLEKFKNTIIDCLEEAKEKSENQTKDEIESSDGEYSMILESSNIGNISDVEKDVNVEAAQFSDSENDFEDSDDDTSRKRNRSKLEESIANNTSEKLSVNEDYDSEDTNEPKNDAKDINEPEDGTKDVIMEDSVSSNVIENSKNVSFILPDNDYSSSESSMSVDDESYKEEGHHHHHH | soluble
MGSDKIHHHHHHMPINKLALVRYKTIDSCLQNRFRKWTLEDLMEACSDALYEYEGMTKGISRRTIQLDIQNMRSEKLGYNAPIIVTDKKFYSYEDKGYSITNSPLTQQDLGTLVEVLDVLKQFKGFGYFQELTGMVTRLEDKLYTHQHKGKSYIDFEKNELLKGLQHIDLLHKAIINKKTVDILYQSFKAASAQNITFYPYLLKEYRNRWFILGCNKRTKATMILALDRIEQFKELRSEKYMKPDFDVATYFDDVIGVSKMPNQEPQLIVCKISKEHAPYIITKPIHASQQIIRGEKDGTVFSIHVIWNFELERELLGFGEQLQVLAPRRIQGKLRARMKRAVAAYESEKKE | not soluble
MKKTYYLFNPGELSRKDNTIRFVPIQEGENGQEQAGQARYIPVEGISDFYVFGSLRANSSLYNFLGSNDIAVHFFDYYENYTGSFMPRDFLLSGKMLLAQASAYKNKKKRLFLARKFIEGAASNMQKNLAYYNNRGKDMQPMMELIDKYSLRLKETTTIEALMGIEGNIRQAYYDAFNLIIDPFEMGVRSKQPPQNEVNALISFGNMMCYTLCLKAIHQSQLNPTISFLHTPGERRYSLCLDISEVFKPILVDRTIFKVMNKRIIQAKHFDKQLNKCILNPSGKKLFVQAFEERLSETIRHRKLNRSVSFRHLVKLECYKIAKDILGIEEYQPFKMYW | not soluble
MVTHSKFPAAGMSRPLDTSLRLKTFSSKSEYQLVVNAVRKLQESGFYWSAVTGGEANLLLSAEPAGTFLIRDSSDQRHFFTLSVKTQSGTKNLRIQCEGGSFSLQSDPRSTQPVPRFDCVLKLVHHYMPPPGTPSFSLPPTEPSSEVPEQPPAQALPGSTPKRAYYIYSGGEKIPLVLSRPLSSNVATLQHLCRKTVNGHLDSYEKVTQLPGPIREFLDQYDAPL | soluble
MAHHHHHHMQEVMQKALAGRYDPLPPTISPEMTEVVTSLLCGDPHARPSSSKLLNMPICKLFVSGLLEIVQTQPSFAGPLRDTISTHIQSVKQSLKEERRVTVRQMEESQSAAAASTTILEGATPMGSVGDLTLYEGIVKKQSGDLAWKRRYLCIRGALEEGERLDVGRMPKFKSLDLVLAVSKETMRQQCITTPFSELEDVFPVASKYTGSNAQHVFAVAFKTGRRLLFQARGDPERDAWMQKIQQTLGIDEAD | not soluble
MSSYQQKQTFTPPPQLQQQQVKQPSQPPPQEIFVPTTKEPCHSKVPQPGNTKIPEPGCTKVPEPGCTKVPEPGCTKVPEPGCTKVPEPGCTKVPEPGYTKVPEPGSIKVPDQGFIKFPEPGAIKVPEQGYTKVPVPGYTKVPEPCPSTVTPGPAQQKTKQK | soluble
TSKINWNISVNATTYKNKILTLPEEKRESGIWNGIFKMVEGGSYYDYYIKEWAGVDPEDGKAMWYKDVTDKNGNTTKETTKTYSEATDYKAGCALPDLYGGISTSLNAYGFDFSIALTYQLGGQGYDYTYATLMNSAQGAGTNYHNDILNAWTPENKYTDVPKLNAKESNNNSTSTRFLTSTSYLSLQNISVGYTLPKNWIAKLGCESLRVYFVADNVALLSARKGYDPRTNWNGESNYNYSALRSISGGITMKF | not soluble
MPKLHMFYLGGNAGRSNIEVHDIQFAVCDNYREAVPALKAAWFGDADKIHIDGWQIVEWADGYDIAVSETPKTKMPSEHAPRLYFANVGGYRAGQLAEAHAFGLFAAATPAEAKQKALQTLLTDSYVQQHKDNLKDVDNLLALDRIGNFHIRLTPNPHGKPAEIGFQGYLPI | not soluble
MRASRKRLHTTNLRWNMSQKHWSKVQLLHEVVKNPNIIIKGKHSYYSDCWDAGFEASVVRYLHGDEISQRWDPLWEIDQLVIGDYVCIGAEVVILMGGNHTHRADWFCLYPFMDVIEQAYVGKGNTEIGDGAWLGMRAMIMPGVKIGEGAIVAANSVVTKDVAPYSIVAGSPAQLVKYRFDAKVIDELLALKVYDWPPEKFTALKSYLCALDLAALKQAVIQYDAEPHNPLS | not soluble
MDHVHKSTTTDEDERNSGRAIDRHNPIIKDGRRSFADDFIKLPTSAEDGEMSNKKLEIYKGRRSITGRRSTGGGGGGGAAALLKLITNDIGLARKSFSCVARPACDLIKTPVGSTRYLLGSDPDSITGSVDQDPAKTVEAEAPAGEDKTLTEKKTTCGDTDQVSCFVVSIMSGINVNKW | not soluble
MYKHIVKRGETIASIARDYRTSVEALLRANGLTAASVIFPGQEIVIPHLPPKGSIPYTIHISISRRQLTLKHRGRTIRTYPIGVGKMVTATPVGDFVIVNRQPNPGGPFGAMWLSLSKIHYGIHGTNDPSSIGKYVSKGCIRMHNKDVLELASIVPNGTEVFIRP | not soluble
GMTALRQDIDPNGLLEYSVVYTDRALNHMSKAFQEVMNDLLSNLKTVYNAEAAVIIPGSGTYGMEAVARQLTIDEDCLIIRNGWFSYRWTQILEKGKFAKSSTVLTAERTEDTEAPKPFAPVDIETAVAKIKEDKSAIVYAPHVETSSGIILSEEYIKALSEAVHSVGGLLVIDCIASGCVWLDMKELGIDVLISAPQKGWSSTPCAGLVMLSAAAIKKVESTESNCFSLDLKQWLTIMRAYENGGHAYHATMPTDSLRQFRDAILEAKEIGFDILRDAQWELGNRVRKVLTDKGIESVAAEGFEAPGVVVSYTERDDMHKGSAFAEAGLQIAAGVPLKVGEPDNFKTFRLGLFGLDKLTDIDGTVERFEKALDEVLAK | soluble
MTEAEILRLIRRVSGISQQADEQTTQPDSVTAENYARVVAEVMRRDGIQLNDADMRDIRIRVLEMLAYNRRVELYREKEKITYHWKKPERLRR | not soluble
MGEQSHEKDHDEAHSYNPFVRSAVEYDADTRLQMAENAASARKLFVSSALKDIIVNPENFYHDFQQSAQMAEDANQRRQVSYNTKREAHIHQLKAQGLPLPSNIPMIEINPTRVTLNMEFESQYYSLMTSDNGDHENVASIMAETNTLIQLPDRSVGGTTPDPFAQQVTITGYFGDVDRARMLMRRNCHFTVFMALSKMKMPLHELQAHVRQNPIQNVEMSFVDAPEKNGIVTTYLRITAREKNQHELIEAAKRLNEILFRESPAPENNFTLHFTLSTYYVDQVLGSSSTAQLMPVIERETTTIISYPCYNNRNETRGNIYEIKVVGNIDNVLKARRYIMDLLPISMCFNIKNTDMAEPSRVSDRNIHMIIDESGIILKMTPSVYEPADLLSGEVPLNCASLRSKEFNIKKLYTAYQKVLSKKFDFIAPQPNDYDNSIWHHSLPANFLKNFNMPCRGELSDGSNGRRHRSSSIASSRSKHSYMSKGKQFSESSGGPSRSHTRVSSFSENSSTVPIMQFPTPHFAPPMLTPHHHMLKYVYLQQHQQAQTFLKGAAGLHPGTHIMFPPPIIVDGSFVSALPFADPVVFDGFPYVHGLFPVNEAEQHRNHRESSPSLRSTQEIRKPSRNMGNRPSSSTGSYYPSTTPRQRVYEQVREDDLRSHIGSRRTSVNGDDQNVESMHDQGYERQYPRQHQRLQKDDQQRWKTGSRGDIHSSRTINVHRDVRNSNEYDFHVGNSGPAKRSPSLEQVQLQMTHHLKLKSNDVDLDHEKLYMHESPHNDSDTTVSASGFGNDLMDGDFVQRFLSNANINESGRRPRTVSCFTEKDGQSARYIDSDGAYSVVDHASTHQSRSYDSFRKVGDNGVTKTILEPRARVEKDYGKISLEHKTKYSNEYGDEEKSAENDTSSLGSRQYRIDPMKRNIYILRNRDFSNSFFYFLHQFSLYMNPICAYRIRLHQFLSYKPSICLSRISLYPRDLYD | not soluble
MTETDKKQEQENHAECEDKPKPCCVCKPEKEERDTCILFNGQDSEKCKEFIEKYKECMKGYGFEVPSAN | soluble
